biological target: autotaxin (ENPP2/NPP2) (Homo sapiens, UniProt Q13822 Q13822:36-863); assay: inhibition; LPA production, 0.10 uM aptamer, ~92% serum, 37C 3 h

Binder	activity
CCTGGACGGAACCAGAATACTTTTGGTCTCCAGG (ssDNA, 2'-OMe C7,G9,A14,G15,A19,C20,A32,G33,G34; P-methyl C2; idT 5' and 3') [12(58)]	69 % inhibition
CCTGGACGGAACCAGAATACTTTTGGTCTCCAGG (ssDNA, 2'-OMe C7,G9,A14,G15,A19,C20,A32,G33,G34; P-methyl T18; idT 5' and 3') [12(60)]	50 % inhibition
CCTGGACGGAACCAGAATACTTTTGGTCTCCAGG (ssDNA, 2'-OMe C7,G9,A14,G15,A19,C20,A32,G33,G34; P-methyl C30; idT 5' and 3') [12(127)]	79 % inhibition
CCTGGACGGAACCAGAATACTTTTGGTCTCCAGG (ssDNA, 2'-OMe C7,G9,A14,G15,A19,C20,A32,G33,G34; P-methyl G26; idT 5' and 3') [12(89)]	48 % inhibition
CCTGGACGGAACCAGAATACTTTTGGTCTCCAGG (ssDNA, 2'-OMe C7,G9,A14,G15,U18,A19,C20,A32,G33,G34; idT 5' and 3') [12(75)]	65 % inhibition
CCTGGACGGAACCAGAATACTTTTGGTCTCCAGG (ssDNA, 2'-OMe C7,G9,A14,G15,A19,C20,A32,G33,G34; PS after C7; idT 5' and 3') [12(106)]	68 % inhibition
CCTGGACGGAACCAGAATACTTTTGGTCTCCAGG (ssDNA, 2'-OMe C7,G9,A14,G15,A19,C20,A32,G33,G34; P-methyl C31; idT 5' and 3') [12(126)]	77 % inhibition
CCTGGACGGAACCAGAATACTTTTGGTCTCCAGG (ssDNA, 2'-OMe C7,G9,A14,G15,A19,C20,A32,G33,G34; PS after T23; idT 5' and 3') [12(87)]	70 % inhibition
CCTGGACGGAACCAGAATACTTTTGGTCTCCAGG (ssDNA, 2'-OMe C7,G9,A14,G15,A19,C20,A32,G33,G34; P-methyl C1; idT 5' and 3') [12(130)]	77 % inhibition
CCTGGACGGAACCAGAATACTTTTGGTCTCCAGG (ssDNA, 2'-OMe C7,G9,A14,G15,A19,C20,A32,G33,G34; P-methyl C13; idT 5' and 3') [12(91)]	58 % inhibition
CCTGGACGGAACCAGAATACTTTTGGTCTCCAGG (ssDNA, 2'-OMe C7,G9,A14,G15,A19,C20,A32,G33,G34; 5' 40 kDa PEG (GL2-400TS) via ssH linker; 3' idT) [12(66)]	77 % inhibition
CCTGGACGGAACCAGAATACTTTTGGTCTCCAGG (ssDNA, 2'-OMe C7,G9,A14,G15,A19,C20,A32,G33,G34; PS after G5; idT 5' and 3') [12(111)]	60 % inhibition
CCTGGACGGAACCAGAATACTTTTGGTCTCCAGG (ssDNA, 2'-OMe C7,G9,A14,G15,A19,C20,A32,G33,G34; PS after T24; idT 5' and 3') [12(82)]	51 % inhibition
CCTGGACGGAACCAGAATACTTTTGGTCTCCAGG (ssDNA, 2'-OMe C7,G9,A14,G15,A19,C20,A32,G33,G34; PS after A17; idT 5' and 3') [12(100)]	80 % inhibition
CCTGGACGGAACCAGAATACTTTTGGTCTCCAGG (ssDNA, 2'-OMe C7,G9,A14,G15,A19,C20,A32,G33,G34; PS after C30; idT 5' and 3') [12(113)]	66 % inhibition
CCTGGACGGAACCAGAATACTTTTGGTCTCCAGG (ssDNA, 2'-OMe C7,G9,A14,G15,A19,C20,A32,G33,G34; PS after T22; idT 5' and 3') [12(104)]	74 % inhibition
CCTGGACGGAACCAGAATACTTTTGGTCTCCAGG (ssDNA, 2'-OMe C7,G9,A14,G15,A19,C20,A32,G33,G34; P-methyl G4; idT 5' and 3') [12(59)]	71 % inhibition
CCTGGACGGAACCAGAATACTTTTGGTCTCCAGG (ssDNA, 2'-OMe C7,G9,A14,G15,A19,C20,U22,A32,G33,G34; idT 5' and 3') [12(73)]	11 % inhibition
CCTGGACGGAACCAGAATACTTTTGGTCTCCAGG (ssDNA, 2'-OMe C7,G9,A14,G15,A19,C20,A32,G33,G34; P-methyl C28; idT 5' and 3') [12(62)]	75 % inhibition
CCTGGACGGAACCAGAATACTTTTGGTCTCCAGG (ssDNA, 2'-OMe C7,G9,A14,G15,A19,C20,A32,G33,G34; PS after C2; idT 5' and 3') [12(108)]	68 % inhibition
CCTGGACGGAACCAGAATACTTTTGGTCTCCAGG (ssDNA, 2'-OMe C7,G9,A14,G15,A19,C20,U29,A32,G33,G34; idT 5' and 3') [12(71)]	31 % inhibition
CCTGGACGGAACCAGAATACTTTTGGTCTCCAGG (ssDNA, 2'-OMe C7,G9,A14,G15,A19,C20,A32,G33,G34; P-methyl T3; idT 5' and 3') [12(129)]	73 % inhibition
CCTGGACGGAACCAGAATACTTTTGGTCTCCAGG (ssDNA, 2'-OMe C7,G9,A14,G15,A19,C20,A32,G33,G34; PS after G25; idT 5' and 3') [12(83)]	54 % inhibition
CCTGGACGGAACCAGAATACTTTTGGTCTCCAGG (ssDNA, 2'-OMe C7,G9,A14,G15,A19,C20,A32,G33,G34; PS after C28; idT 5' and 3') [12(86)]	57 % inhibition
CCTGGACGGAACCAGAATACTTTTGGTCTCCAGG (ssDNA, 2'-OMe C7,G9,A14,G15,A19,C20,A32,G33,G34; PS after A16; idT 5' and 3') [12(99)]	81 % inhibition
CCTGGACGGAACCAGAATACTTTTGGTCTCCAGG (ssDNA, 2'-OMe C7,G9,A14,G15,A19,C20,A32,G33,G34; PS after T18; idT 5' and 3') [12(101)]	81 % inhibition
CCTGGACGGAACCAGAATACTTTTGGTCTCCAGG (ssDNA, 2'-OMe U3,C7,G9,A14,G15,A19,C20,A32,G33,G34; idT 5' and 3') [12(68)]	53 % inhibition
CCTGGACGGAACCAGAATACTTTTGGTCTCCAGG (ssDNA, 2'-OMe C7,G9,A14,G15,A19,C20,A32,G33,G34; P-methyl A16; idT 5' and 3') [12(124)]	76 % inhibition
CCTGGACGGAACCAGAATACTTTTGGTCTCCAGG (ssDNA, 2'-OMe C7,G9,A14,G15,A19,C20,A32,G33,G34; P-methyl G25; idT 5' and 3') [12(90)]	63 % inhibition
CCTGGACGGAACCAGAATACTTTTGGTCTCCAGG (ssDNA, 2'-OMe C7,G9,A14,G15,A19,C20,A32,G33,G34; PS after C13; idT 5' and 3') [12(81)]	70 % inhibition
